Test results as given in publication PMC7042235, “Structural basis for two-way communication between dynein and microtubules” (Nature Communications, 2020).

Target: T1, microtubules (polymerized porcine tubulin) (porcine, UniProt P02550 1-451; P02554 1-445)
T1 construct: alpha-tubulin of porcine tubulin; beta-tubulin of porcine tubulin; Polymer of alpha/beta-tubulin dimers; 14-protofilament MTs were selected for cryo-EM; The species is stated only for the co-sedimentation assay; also called MT; MTs; source: porcine tubulin, polymerized (stabilised with 10 uM paclitaxel for co-sedimentation; GMPCPP-MT for cryo-EM)
Assay: co-sedimentation; purified MTBDs (1-32 uM) mixed with 5 uM paclitaxel-stabilised porcine MTs; 100 mM PIPES pH 6.8, 50 mM NaCl, 2 mM MgCl2, 1 mM EGTA; 210,000 x g, 25 °C, 10 min; pellets on SDS-PAGE, densitometry, one-site curve fitting
Settings: both partners purified

B1: MTBD-Low, MTBD(S3097C/V3222C) (domain or fragment)
chain: KCIQDIEPTILEAQRGVKNIKKQQLTEIRSMVNPPSGVKIVMEAVCAILGYQFSNWRDIQQFIRKDDFIHNIVHYDTTLHMKPQIRKYMEEEFLSDPNFTYETINRASKACGPLYQWVNAQINFSKCLENVDPLRQE
modifications: intramolecular disulfide bond between C3097 (CC1) and C3222 (CC2)
  Kd: > 200 µM
